Test results reported in US20150329642A1 (Genmab, published 2015).

Legend:
[1] = biological target: T1, human c-Met, membrane-bound on cells (human, UniProt P08581 25-1390); assay: flow cytometry on A431 cells (PE goat anti-human IgG); top panel
T1 construct: whole, on cells; A431 cells carry on average 30,000 copies of c-Met per cell (Qifi); also called c-Met expressed on A431 cells; c-Met on A549 cells
Description: (§1) The binding of anti-c-Met antibodies and monovalent forms thereof (also termed “UniBody molecules” herein, see Example 5) to A431 cells expressing membrane-bound c-Met (purchased at ATCC, CRL-1555) was tested using flow cytometry (FACS Canto II, BD Biosciences). […] Binding of anti-c-Met antibodies and UniBody molecules was detected using a Phycoerythrin-conjugated goat-anti-human IgG antibody (Jackson). IgG1-5D5 was used as positive control antibody, and HuMab-KLH was used as isotype control antibody. EC₅₀ values were determined by means of non-linear regression (sigmoidal dose-response with variable slope) using GraphPad Prism V4.03 software (GraphPad Software, San Diego, Calif., USA).
(§2) Also maximum binding levels were unchanged between IgG1's and UniBody molecules. For antibodies 005, 006, 008, 035, 045 and 058, on the other hand, a more than 2-fold […] as well as a decrease in maximum binding level was observed when comparing IgG1 with their UniBody counterpart. This was most likely due to the […] (Kd) of these antibodies (see Example 14).

[2] = biological target: T1, human c-Met, membrane-bound on cells; assay: flow cytometry on A431 cells
Description: as §1, §2

[3] = biological target: T2, recombinant human c-Met extracellular domain (R&D systems) (human, UniProt P08581 25-932); assay: competition ELISA, residual Europium-HGF signal at 615 nm at the lower plateau of the fit; sheet prints no competing mAb ~66000, no HGF-Europium ~600; lower panel
T2 construct: extracellular domain; Bought reagent; also called coated extracellular domain of c-Met; recombinant c-Met
Description: (§3) ELISA wells were coated overnight at 4° C. with 0.5 μg/mL recombinant human c-Met extracellular domain (R&D systems, Minneapolis, USA) diluted in PBS. Next, the ELISA wells were washed with PBST (PBS supplemented with 0.05% Tween-20 [Sigma-Aldrich, Zwijndrecht, The Netherlands]) and blocked for one hour at room temperature (RT) with PBST supplemented with 2% (v/v) chicken serum (Gibco, Paisley, Scotland). […] Mean fluorescence intensity at 615 nm was measured using the EnVision 2101 Multilabel reader (PerkinElmer) applying the following settings: Lance/Delfia dual mirror, emission filter 615, excitation filter 340 nm, delay time 400 μs, window 400 μs, 100 flashes, 2000 μs per cycle and bidirectional row-by-row reading. To determine IC₅₀ values, the binding curves were analyzed with non-linear regression (sigmoidal dose-response with variable slope, top-values constrained to a shared value for all data-sets) using GraphPad Prism V4.03 software (GraphPad Software, San Diego, Calif., USA).
(§4) FIG. 5 depicts representative examples of HGF binding inhibition curves of anti-c-Met antibodies for binding to the extracellular domain of recombinant human c-Met. 5D5 was used as positive control antibody. All anti-c-Met antibodies in the experiment shown were able to compete with Europium^{3±}-conjugated HGF for binding to recombinant c-Met. […] Without adding Europium³⁺-conjugated HGF, roughly ˜600 relative fluorescent units (RFU) were detected, indicating the signal when maximal inhibition is accomplished. When binding of Europium³⁺-conjugated HGF was not inhibited, approximately ˜66,000 RFU were detected.

cMetECDHis = biological target: T3, cMetECDHis (human, UniProt P08581 25-932, limits assumed, biotinylated in the cross-block ELISA of Example 17); assay: BLI (Octet); antibody captured, cMetECDHis in solution
T3 construct: Expressed in HEK-293F cells; also called soluble cMetECDHis; biotinylated cMetECDHis
Description: Antibody binding to cMetECDHis was analyzed by means of Bio-Layer Interferometry (BLI) technology on the Octet System (Fortebio, Menlo Park, USA). Anti-human IgG coated biosensors (Fc-specific) were used to capture anti-c-Met antibodies according to the procedure recommended by the manufacturer. cMetECDHis derived from HEK293 cells was loaded on top of the immobilized anti-c-Met antibodies by placing the loaded biosensor into a well containing 10 μg/mL cMetECDHis diluted in 10 times diluted kinetics buffer (Fortebio). The difference in reflection of light (AA, nm) of the biosensor surface due to the binding of cMetECDHis was measured in real time during approximately 10 minutes and was used by the Octet software (V4.0, Fortebio) to calculate the association constant (kₐ [1/M×s]). Next, the loaded biosensor was placed into a well containing only kinetics buffer (10 times diluted in PBS) to determine the dissociation constant (kd [1/s]). Kinetics analysis was performed to determine the affinity (KD [M]) using model 1:1 (langmuir). As a positive control, 0.2 μg/mL 5D5 IgG1 produced in HEK293 cells, was used.

[4] = biological target: T2, recombinant human c-Met extracellular …; assay: competition ELISA on coated recombinant c-Met extracellular domain; blocked ligand Europium-conjugated HGF; column headed EC50 on the sheet, called IC50 in paragraph 270; lower panel
Description: as §3, §4

[5] = biological target: T1, human c-Met, membrane-bound on cells; assay: cell-based or functional assay
[6] = biological target: T1, human c-Met, membrane-bound on cells; assay: flow cytometry on A431 cells (PE goat anti-human IgG); second panel
Description: as §1, §2

| Binder | EC50 [1] [nM] | fold change of EC50, UniBody molecule against IgG1 of the identical clone [2] [fold] | EC50 [6] [nM] | further results |
| --- | --- | --- | --- | --- |
| Uni-1016-058-TE (other, also called UniBody molecule of antibody 058) VH: EVQLVESGGGLVKPGGSLKLSCAASGFTFSDYYMYWVRQTPEKRLEWVATISDDGSYTYYPDSVKGRFTISRDNAKNNLYLQMSSLKSEDTAMYYCAREGLYYYGSGSYYNQDYWGQGTLVTVSS VL: AIQLTQSPSSLSASVGDRVTITCRASQGLSSALAWYRQKPGKAPKLLIYDASSLESGVPSRFSGSGSGTDFTLTISSLQPEDFATYYCQQFTSYPQITFGQGTRLEIK | 0.67 | > 2 |  |  |
| IgG4-058 (antibody, V domains shown, IgG4 format of clone 058; also called IgG4-1016-058) VH: EVQLVESGGGLVKPGGSLKLSCAASGFTFSDYYMYWVRQTPEKRLEWVATISDDGSYTYYPDSVKGRFTISRDNAKNNLYLQMSSLKSEDTAMYYCAREGLYYYGSGSYYNQDYWGQGTLVTVSS VL: AIQLTQSPSSLSASVGDRVTITCRASQGLSSALAWYRQKPGKAPKLLIYDASSLESGVPSRFSGSGSGTDFTLTISSLQPEDFATYYCQQFTSYPQITFGQGTRLEIK | 0.276 |  |  |  |
| anti-c-Met HuMab 096 (IgG1) (antibody, V domains shown, also called TH1016-096; PC1016-096) VH: EVQLVQSGAEVKKPGESLKISCKGSGYSFTSYWIGWVRQMPGKGLEWMGIIYPGDSDTRYSPSFQGQVTISADKSISTAYLQWSSLKASDTAMYYCARQEITGDFDYWGQGTLVTVSS VL: AIQLTQSPSSLSASVGDRVTITCRASQGISSALAWYQQKPGKAPNLLIYAASSLESGVPSRFSGSGSGTDFTLTISSLQPEDFATYYCQQFNSYPLTFGGGTKVEIK |  |  |  | Bottom [3]: 24800 RFU; Kd (cMetECDHis): 2.55 nM; koff (cMetECDHis): 0.0005 s⁻¹; kon (cMetECDHis): 196000 M⁻¹ s⁻¹; IC50 [4]: 0.0152 µg/mL |
| Uni-1016-022-TE (other, also called UniBody molecule of antibody 022) VH: QVQLVESGGGVVQPGRSLRLSCAASGFTFSSYAMHWVRQAPGKGLEWVAVISYDGSNKYYADSVKGRFTISRDNSKNTLYLQMNSLRAEDTAVYYCARELLWFGELWGYFDLWGRGTLVTVSS VL: DIQMTQSPSSVSASVGDRVTITCRASQGISSWLAWYQHKPGKAPKLLIYAASSLQSGVPSRFSGSGSGTDFTLTISSLQPEDFATYYCQEASSFTWTFGQGTKVEIK |  | < 2 | 1.66 | percentage inhibition of viable KP4 cells (Alamarblue) [5]: 57% |
| Uni-1016-006 (other, also called UniBody molecule of antibody 006) VH: QVQLVQSGAEVKKPGSSVKVSCKASGGTFSSFGIGWVRQAPGQGLEWMGRIFPILGTANYAQMFQGRVTITADKSTSTAYMELTSLRSEDTAVYYCARDVGYDSADAFDIWGQGTMVTVSS VL: DIQMTQSPSSLSASVGDRVTITCRASQGISSWLAWYQQKPEKAPKSLIYAASSLQSGVPSRFSGSGSGTDFTLTISSLQPEDFATYYCQQYNSYPPTFGQGTKVEIK | 0.323 | > 2 | 13.9 |  |
